Assay [1] has as its target T1, human Her3 on tumor cells (human, UniProt P21860 20-1342). Put plainly: cell-based or functional assay.
The target of assay [2] is T2, human EGFR-His (human, UniProt P00533 25-645).
T2 construct: Bought protein
The assay is described as follows: ELISA, coated human EGFR-His.

Assay [3] has as its target T3, human Her2-His (human, UniProt P04626 23-652).
T3 construct: Bought protein
Put plainly: ELISA, coated human Her2-His.

Assay [4] addresses T4, human Her4-His (human, UniProt Q15303 26-649, limits assumed).
T4 construct: Bought protein
T4 sequence (looked up): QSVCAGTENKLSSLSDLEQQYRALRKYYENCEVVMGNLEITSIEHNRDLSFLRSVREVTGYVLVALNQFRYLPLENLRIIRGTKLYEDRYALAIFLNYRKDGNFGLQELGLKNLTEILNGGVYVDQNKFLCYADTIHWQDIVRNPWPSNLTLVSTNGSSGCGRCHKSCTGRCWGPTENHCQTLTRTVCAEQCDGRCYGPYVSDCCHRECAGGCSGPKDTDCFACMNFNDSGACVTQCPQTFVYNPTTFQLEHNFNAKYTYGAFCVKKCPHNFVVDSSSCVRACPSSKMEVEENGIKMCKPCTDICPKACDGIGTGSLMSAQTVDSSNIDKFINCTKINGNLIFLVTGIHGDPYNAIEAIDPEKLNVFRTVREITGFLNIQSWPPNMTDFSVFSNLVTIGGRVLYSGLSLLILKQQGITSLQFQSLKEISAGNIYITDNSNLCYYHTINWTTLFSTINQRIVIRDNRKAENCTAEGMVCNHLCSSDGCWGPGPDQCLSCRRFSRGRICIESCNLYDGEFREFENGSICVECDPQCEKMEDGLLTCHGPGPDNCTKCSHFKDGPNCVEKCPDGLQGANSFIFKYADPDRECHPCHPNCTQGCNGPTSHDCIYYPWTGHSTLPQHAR
The assay is described as follows: ELISA, coated human Her4-His.

Assay [5] deals with T2, human EGFR-His. Put plainly: ELISA, coated EGFR-his, antibody 40 ng/mL.
Assay [6] deals with T3, human Her2-His. Put plainly: ELISA, coated Her2-his, antibody 40 ng/mL.
The target in assay [7] is T5, human Her3-his (human, UniProt P21860 20-643).
T5 construct: Construct encodes positions 1-643 with its own leader; Expressed in HEK293F, purified on a Ni column; also called human Her3 protein
Put plainly: ELISA, coated Her3-his, antibody 40 ng/mL.

The target of assay [8] is T4, human Her4-His. Put plainly: ELISA, coated Her4-his, antibody 40 ng/mL.
For assay [9], the target named is T2, human EGFR-His. Put plainly: ELISA, coated EGFR-his, antibody 200 ng/mL.
For assay [10], the target named is T3, human Her2-His. The assay is described as follows: ELISA, coated Her2-his, antibody 200 ng/mL.
Assay [11] has as its target T5, human Her3-his. The assay is described as follows: ELISA, coated Her3-his, antibody 200 ng/mL.
For assay [12], the target named is T4, human Her4-His. Put plainly: ELISA, coated Her4-his, antibody 200 ng/mL.
Assay [13] concerns the target T1, human Her3 on tumor cells. The assay is described as follows: flow cytometry, A549-human Her3 tumor cells.
The target in assay [14] is T2, human EGFR-His. Put plainly: ELISA, coated EGFR-his, antibody 1000 ng/mL.
Assay [15] addresses T3, human Her2-His. The assay is described as follows: ELISA, coated Her2-his, antibody 1000 ng/mL.
The target of assay [16] is T5, human Her3-his. The assay is described as follows: ELISA, coated Her3-his, antibody 1000 ng/mL.
Assay [17] addresses T4, human Her4-His. The assay is described as follows: ELISA, coated Her4-his, antibody 1000 ng/mL.
For a further assay, the target named is T6, rat Her3-his (rat).
T6 chain: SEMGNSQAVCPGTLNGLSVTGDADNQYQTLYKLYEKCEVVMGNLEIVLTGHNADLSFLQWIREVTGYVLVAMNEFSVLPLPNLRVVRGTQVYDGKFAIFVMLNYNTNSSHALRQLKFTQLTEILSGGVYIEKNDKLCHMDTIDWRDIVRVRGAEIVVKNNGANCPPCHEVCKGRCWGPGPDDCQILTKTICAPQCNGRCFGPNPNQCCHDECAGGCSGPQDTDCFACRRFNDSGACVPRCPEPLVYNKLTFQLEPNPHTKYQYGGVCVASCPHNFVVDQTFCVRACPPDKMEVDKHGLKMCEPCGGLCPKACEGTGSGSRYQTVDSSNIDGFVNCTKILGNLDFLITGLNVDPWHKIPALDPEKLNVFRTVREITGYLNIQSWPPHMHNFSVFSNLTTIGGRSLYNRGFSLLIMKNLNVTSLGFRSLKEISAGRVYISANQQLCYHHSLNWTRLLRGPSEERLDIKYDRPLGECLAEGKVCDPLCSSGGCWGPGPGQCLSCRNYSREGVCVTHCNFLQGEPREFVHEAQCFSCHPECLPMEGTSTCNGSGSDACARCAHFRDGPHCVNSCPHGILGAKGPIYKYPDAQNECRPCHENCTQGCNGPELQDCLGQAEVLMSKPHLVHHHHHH
Put plainly: ELISA, coated rat Her3-his, anti-human Fc-HRP.

Assay [18] concerns the target T5, human Her3-his. Put plainly: ELISA, coated human Her3-his, anti-human Fc-HRP.
Another assay addresses T7, monkey Her3-his (monkey).
T7 chain: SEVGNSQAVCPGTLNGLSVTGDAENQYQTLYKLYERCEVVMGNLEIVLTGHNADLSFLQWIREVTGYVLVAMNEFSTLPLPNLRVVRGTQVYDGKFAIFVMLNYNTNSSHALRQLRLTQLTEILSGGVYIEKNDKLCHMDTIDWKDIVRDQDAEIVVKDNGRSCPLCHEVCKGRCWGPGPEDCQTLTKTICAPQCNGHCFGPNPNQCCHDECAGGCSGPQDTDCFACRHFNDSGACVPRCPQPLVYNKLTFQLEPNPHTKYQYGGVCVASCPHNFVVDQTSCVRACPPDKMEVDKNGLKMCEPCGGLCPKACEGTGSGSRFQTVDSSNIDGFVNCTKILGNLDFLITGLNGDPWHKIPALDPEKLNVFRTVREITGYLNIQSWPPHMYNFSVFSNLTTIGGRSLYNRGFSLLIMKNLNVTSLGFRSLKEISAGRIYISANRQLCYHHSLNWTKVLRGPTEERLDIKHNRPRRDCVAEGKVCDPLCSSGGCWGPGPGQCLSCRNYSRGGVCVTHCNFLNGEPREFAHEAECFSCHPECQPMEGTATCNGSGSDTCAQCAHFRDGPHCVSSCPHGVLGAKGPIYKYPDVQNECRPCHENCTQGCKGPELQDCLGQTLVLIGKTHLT
Put plainly: ELISA, coated monkey Her3-his, anti-human Fc-HRP.

The target in assay [19] is T5, human Her3-his. The assay is described as follows: BLI (Fortibio), antibody on ProteinA sensor, human Her3-His in solution, 1:1 model.
For assay [20], the target named is T1, human Her3 on tumor cells. Put plainly: flow cytometry, T47D tumor cells.

The text below walks through data of patent publication EP4471063A1 (Medilink Therapeutics (Suzhou) Co., Ltd., dated 2023).

B1: antibody 202-3-1 (antibody, human IgG1, kappa, V domains shown)
VH: QVQLQESGPGLVKPSETLSLTCTVSGGSISGYFWSWIRQSPGKGLEWIGYIHYSGRTNYNPSLKSRVTISVDTSKNQFSLKLSSVTAADTAVYYCARETGGSGHWYFDLWGRGNLVTVSS
VL: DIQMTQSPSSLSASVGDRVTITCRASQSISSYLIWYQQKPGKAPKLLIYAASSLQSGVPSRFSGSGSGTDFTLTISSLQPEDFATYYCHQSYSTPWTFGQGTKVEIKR
Consider B1, for which the “IC50 of inhibition of NRG1-induced AKT phosphorylation in MCF-7 cells (cell blotting, anti-Phospho Akt Ser473)” value in assay [1] is 1.04 nM. In addition, the binding result in the assay with human EGFR-His [2] is “no binding (tested: 1 µg/mL, 200 ng/mL, and 40 ng/mL)”; with human Her2-His [3], “no binding (tested: 1 µg/mL, 200 ng/mL, and 40 ng/mL)”; in the assay with human Her4-His [4], “no binding (tested: 1 µg/mL, 200 ng/mL, and 40 ng/mL)”. For the same molecule, the OD450 worked out at 0.055 with human EGFR-His [5]; 0.052 in the assay with human Her2-His [6]; 0.281 with human Her3-his [7]; 0.049 with human Her4-His [8]; 0.05 with human EGFR-His [9]; 0.049 in the assay with human Her2-His [10]. Also, the OD450 with human Her3-his [11] was determined as 0.344; in the assay with human Her4-His [12], 0.051; with human EGFR-His [14], 0.05; with human Her2-His [15] it was 0.048; with human Her3-his [16] it was 0.333; with human Her4-His [17] it was 0.05. Moreover, the EC50 in [13] came to 2.04 nM; in the assay with rat Her3-his it was 0.154 nM; with human Her3-his [18], 0.0606 nM; with monkey Her3-his, 0.0396 nM. Also, the “Maximum MFI” value in assay [13] was determined as 55700 MFI. Moreover, the Kd with human Her3-his [19] turned out to be 7.79 nM. The same molecule displayed a koff with human Her3-his [19] of 0.00142 s⁻¹. In the assay with human Her3-his [19], the kon stood at 182000 M⁻¹ s⁻¹.

B2: antibody 202-3-2 (antibody, human IgG1, kappa, V domains shown)
VH: QVQLQESGPGLVKPSETLSLTCTVSGGSISGYFWSWIRQSPGQGLEWIGYIHYSGRTNYNPSLKSRVTISVDTSKNQFSLQLSSVTAADTAVYYCARETGGSGHWYFDLWGRGNLVTVSS
VL: DIQMTQSPSSLSASVGDRVTITCRASQSISSYLIWYQQKPGQAPRLLIYAASSLQSGVPSRFSGSGSGTDFTLTISSLQPEDFATYYCHQSYSTPWTFGQGTKVEIKR
notes: IgG1/kappa
As to B2, the binding result is “no binding (tested: 1 µg/mL, 200 ng/mL, and 40 ng/mL)” with human EGFR-His [2]; “no binding (tested: 1 µg/mL, 200 ng/mL, and 40 ng/mL)” with human Her2-His [3]; “no binding (tested: 1 µg/mL, 200 ng/mL, and 40 ng/mL)” in the assay with human Her4-His [4]. The OD450 with human EGFR-His [5] turned out to be 0.051; with human Her2-His [6], 0.05; with human Her3-his [7], 0.306; with human Her4-His [8], 0.051; with human EGFR-His [9], 0.05; with human Her2-His [10] it was 0.051. Moreover, the OD450 in the assay with human Her3-his [11] is 0.407; with human Her4-His [12] it was 0.051; with human EGFR-His [14], 0.051; in the assay with human Her2-His [15], 0.05; with human Her3-his [16], 0.427; with human Her4-His [17] it was 0.05. For the same molecule, the EC50 in assay [13] was found to be 2.59 nM; in the assay with rat Her3-his, 0.225 nM; with human Her3-his [18], 0.0782 nM; in the assay with monkey Her3-his, 0.0439 nM. In addition, the “Maximum MFI” value in assay [13] amounted to 54800 MFI. The molecule also showed a Kd in the assay with human Her3-his [19] of 6.81 nM. The molecule further yielded a koff with human Her3-his [19] of 0.00124 s⁻¹. Also, in the assay with human Her3-his [19], the kon was determined as 182000 M⁻¹ s⁻¹.

B3: antibody 202-2-1 (antibody, human IgG1, kappa, V domains shown)
VH: EVQLVESGGGVVQPGRSLRLSCAASGFTFSTYGMHWVRQAPGKGLEWVAVIWYDVSHKYYADSVKGRFTISRDNSKNTLSLQMNSLRAEDTAVYYCARDWGDPDAFDIWGQGTMVTVSS
VL: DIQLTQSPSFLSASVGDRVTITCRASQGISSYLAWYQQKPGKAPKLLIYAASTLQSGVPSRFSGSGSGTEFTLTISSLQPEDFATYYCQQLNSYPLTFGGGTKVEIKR
notes: Fully human IgG1/kappa from a phage scFv library; expressed in HEK293F; also called Her3mAb
In the case of B3, the “IC50 of inhibition of NRG1-induced AKT phosphorylation in MCF-7 cells (cell blotting, anti-Phospho Akt Ser473)” value in assay [1] was 0.243 nM. Also, the binding result is “no binding (tested: 1 µg/mL, 200 ng/mL, and 40 ng/mL)” in the assay with human EGFR-His [2]; “no binding (tested: 1 µg/mL, 200 ng/mL, and 40 ng/mL)” with human Her2-His [3]; “no binding (tested: 1 µg/mL, 200 ng/mL, and 40 ng/mL)” with human Her4-His [4]. Also, the 50% effective concentration (EC50) came to 0.08 nM in assay [20], 1.15 nM in assay [13], 0.021 nM with human Her3-his [18] and 0.0159 nM with monkey Her3-his. For the same molecule, the OD450 with human EGFR-His [5] worked out at 0.051; with human Her2-His [6], 0.049; with human Her3-his [7] it was 0.573; with human Her4-His [8], 0.05; with human EGFR-His [9], 0.051; with human Her2-His [10], 0.05. The OD450 with human Her3-his [11] is 0.695; with human Her4-His [12] it was 0.051; with human EGFR-His [14] it was 0.051; with human Her2-His [15], 0.049; with human Her3-his [16], 0.61; in the assay with human Her4-His [17] it was 0.051. Also, in assay [13], the “Maximum MFI” value is 63800 MFI. In addition, the equilibrium dissociation constant (Kd) with human Her3-his [19] was found to be 13.1 nM. Further, in the assay with human Her3-his [19], the koff worked out at 0.00218 s⁻¹. Further, the kon with human Her3-his [19] was found to be 167000 M⁻¹ s⁻¹.
